In patent publication US10500249B2, “Compositions and methods for preventing or treating diseases, conditions, or processes characterized by aberrant fibroblast proliferation and extracellular matrix deposition” (MOERAE MATRIX, INC., priority 2014, dated 2019):

Legend:
Assay in all cases: Kinase Profiling Assay
Format in all cases: biochemical
Conditions in all cases: 100 μM
ALK (h) = ALK (h) (Homo sapiens, UniProt Q9UM73)
Summary of the method: (§1)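 In this 266-kinase specificity panel, every measurement was duplicated. Transfer of labeled phosphate from ATP to a cationic substrate was quantified after the substrate adhered to an anionic filter membrane and was scintillation-counted, then related to a full-activity control.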

Abl (Q252H) (h) = Abl (Q252H) (h) (Homo sapiens, UniProt P00519, Q252H)
Summary of the method: as §1

BrSK1 (h) = molecular target: T1, BrSK1 (h) (Homo sapiens, UniProt Q8TDC3)
T1 sequence (Q8TDC3 1-778): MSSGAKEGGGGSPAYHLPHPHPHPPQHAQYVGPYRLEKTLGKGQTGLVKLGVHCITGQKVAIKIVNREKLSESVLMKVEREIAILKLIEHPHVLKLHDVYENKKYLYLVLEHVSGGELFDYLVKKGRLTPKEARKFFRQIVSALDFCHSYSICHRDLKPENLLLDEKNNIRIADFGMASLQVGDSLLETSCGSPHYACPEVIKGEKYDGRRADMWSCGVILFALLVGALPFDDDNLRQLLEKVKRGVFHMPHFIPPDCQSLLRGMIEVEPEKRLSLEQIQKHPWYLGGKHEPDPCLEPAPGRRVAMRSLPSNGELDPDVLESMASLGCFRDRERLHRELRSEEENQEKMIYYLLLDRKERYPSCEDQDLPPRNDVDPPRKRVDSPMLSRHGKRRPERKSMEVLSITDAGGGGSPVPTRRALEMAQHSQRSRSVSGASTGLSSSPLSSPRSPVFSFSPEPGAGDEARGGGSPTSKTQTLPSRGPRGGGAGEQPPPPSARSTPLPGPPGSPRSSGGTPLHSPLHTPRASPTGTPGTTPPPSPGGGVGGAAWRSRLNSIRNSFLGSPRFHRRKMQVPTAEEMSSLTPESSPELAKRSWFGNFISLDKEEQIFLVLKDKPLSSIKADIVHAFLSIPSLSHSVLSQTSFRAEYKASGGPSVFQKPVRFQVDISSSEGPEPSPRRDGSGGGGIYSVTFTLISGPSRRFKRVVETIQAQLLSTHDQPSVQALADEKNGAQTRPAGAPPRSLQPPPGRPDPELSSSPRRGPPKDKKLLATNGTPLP
Summary of the method: as §1

CaMKIδ (h) = molecular target: T2, CaMKIδ (h) (Homo sapiens, UniProt Q8IU85)
T2 construct: purchased Millipore
Summary of the method: as §1

Hck (h) activated = molecular target: T3, Hck (h) activated (Homo sapiens, UniProt P08631)
T3 construct: purchased Millipore
Summary of the method: as §1

IRR (h) = molecular target: T4, IRR (h) (Homo sapiens, UniProt P14616)
T4 construct: purchased Millipore
Summary of the method: as §1

MINK (h) = molecular target: T5, MINK (h) (Homo sapiens, UniProt Q8N4C8)
T5 construct: purchased Millipore
Summary of the method: as §1

MST1 (h) = molecular target: T6, MST1 (h) (Homo sapiens, UniProt Q13043)
T6 construct: purchased Millipore
T6 sequence (Q13043 1-487): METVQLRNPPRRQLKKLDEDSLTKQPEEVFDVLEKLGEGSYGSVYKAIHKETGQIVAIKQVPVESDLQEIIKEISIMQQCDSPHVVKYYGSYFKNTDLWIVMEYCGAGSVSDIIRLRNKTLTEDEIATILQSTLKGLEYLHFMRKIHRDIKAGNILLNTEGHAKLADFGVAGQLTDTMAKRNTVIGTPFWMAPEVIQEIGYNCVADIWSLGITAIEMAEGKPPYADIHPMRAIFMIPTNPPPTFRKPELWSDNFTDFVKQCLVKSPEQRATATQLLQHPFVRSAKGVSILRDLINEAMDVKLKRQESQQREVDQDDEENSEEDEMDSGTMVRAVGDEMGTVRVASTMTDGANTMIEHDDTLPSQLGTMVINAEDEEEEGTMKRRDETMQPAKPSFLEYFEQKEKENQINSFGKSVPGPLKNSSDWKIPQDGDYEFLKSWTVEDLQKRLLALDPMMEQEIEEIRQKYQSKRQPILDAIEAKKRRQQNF
Summary of the method: as §1

Met(M1268T) (h) = Met(M1268T) (h) (Homo sapiens, UniProt P08581, M1250T)
Summary of the method: as §1

Pim-1 (h) = molecular target: T7, Pim-1 (h) (Homo sapiens, UniProt P11309)
T7 construct: purchased Millipore
Summary of the method: as §1

PrKX (h) = molecular target: T8, PrKX (h) (Homo sapiens, UniProt P51817)
T8 sequence (P51817 1-358): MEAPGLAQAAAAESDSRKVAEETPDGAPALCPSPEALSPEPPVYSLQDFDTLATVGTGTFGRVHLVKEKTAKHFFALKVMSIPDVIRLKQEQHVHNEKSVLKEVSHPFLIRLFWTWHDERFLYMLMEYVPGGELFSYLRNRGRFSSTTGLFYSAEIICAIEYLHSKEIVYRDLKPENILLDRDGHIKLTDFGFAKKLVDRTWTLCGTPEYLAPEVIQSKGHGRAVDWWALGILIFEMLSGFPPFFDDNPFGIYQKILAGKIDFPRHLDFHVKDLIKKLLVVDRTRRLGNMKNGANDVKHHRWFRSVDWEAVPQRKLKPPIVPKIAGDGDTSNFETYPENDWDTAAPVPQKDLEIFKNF
Summary of the method: as §1

T2 sequence (Q8IU85 whole entry): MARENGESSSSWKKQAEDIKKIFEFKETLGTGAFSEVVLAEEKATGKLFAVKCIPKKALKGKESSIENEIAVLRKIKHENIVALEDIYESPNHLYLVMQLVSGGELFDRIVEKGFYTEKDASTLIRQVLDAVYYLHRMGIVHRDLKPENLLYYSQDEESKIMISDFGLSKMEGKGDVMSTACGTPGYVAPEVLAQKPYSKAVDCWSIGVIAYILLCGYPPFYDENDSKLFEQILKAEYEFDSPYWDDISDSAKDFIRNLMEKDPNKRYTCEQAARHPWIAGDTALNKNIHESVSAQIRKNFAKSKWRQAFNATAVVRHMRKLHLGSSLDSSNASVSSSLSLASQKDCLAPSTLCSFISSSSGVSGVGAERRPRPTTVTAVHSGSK
T5 sequence (Q8N4C8 whole entry): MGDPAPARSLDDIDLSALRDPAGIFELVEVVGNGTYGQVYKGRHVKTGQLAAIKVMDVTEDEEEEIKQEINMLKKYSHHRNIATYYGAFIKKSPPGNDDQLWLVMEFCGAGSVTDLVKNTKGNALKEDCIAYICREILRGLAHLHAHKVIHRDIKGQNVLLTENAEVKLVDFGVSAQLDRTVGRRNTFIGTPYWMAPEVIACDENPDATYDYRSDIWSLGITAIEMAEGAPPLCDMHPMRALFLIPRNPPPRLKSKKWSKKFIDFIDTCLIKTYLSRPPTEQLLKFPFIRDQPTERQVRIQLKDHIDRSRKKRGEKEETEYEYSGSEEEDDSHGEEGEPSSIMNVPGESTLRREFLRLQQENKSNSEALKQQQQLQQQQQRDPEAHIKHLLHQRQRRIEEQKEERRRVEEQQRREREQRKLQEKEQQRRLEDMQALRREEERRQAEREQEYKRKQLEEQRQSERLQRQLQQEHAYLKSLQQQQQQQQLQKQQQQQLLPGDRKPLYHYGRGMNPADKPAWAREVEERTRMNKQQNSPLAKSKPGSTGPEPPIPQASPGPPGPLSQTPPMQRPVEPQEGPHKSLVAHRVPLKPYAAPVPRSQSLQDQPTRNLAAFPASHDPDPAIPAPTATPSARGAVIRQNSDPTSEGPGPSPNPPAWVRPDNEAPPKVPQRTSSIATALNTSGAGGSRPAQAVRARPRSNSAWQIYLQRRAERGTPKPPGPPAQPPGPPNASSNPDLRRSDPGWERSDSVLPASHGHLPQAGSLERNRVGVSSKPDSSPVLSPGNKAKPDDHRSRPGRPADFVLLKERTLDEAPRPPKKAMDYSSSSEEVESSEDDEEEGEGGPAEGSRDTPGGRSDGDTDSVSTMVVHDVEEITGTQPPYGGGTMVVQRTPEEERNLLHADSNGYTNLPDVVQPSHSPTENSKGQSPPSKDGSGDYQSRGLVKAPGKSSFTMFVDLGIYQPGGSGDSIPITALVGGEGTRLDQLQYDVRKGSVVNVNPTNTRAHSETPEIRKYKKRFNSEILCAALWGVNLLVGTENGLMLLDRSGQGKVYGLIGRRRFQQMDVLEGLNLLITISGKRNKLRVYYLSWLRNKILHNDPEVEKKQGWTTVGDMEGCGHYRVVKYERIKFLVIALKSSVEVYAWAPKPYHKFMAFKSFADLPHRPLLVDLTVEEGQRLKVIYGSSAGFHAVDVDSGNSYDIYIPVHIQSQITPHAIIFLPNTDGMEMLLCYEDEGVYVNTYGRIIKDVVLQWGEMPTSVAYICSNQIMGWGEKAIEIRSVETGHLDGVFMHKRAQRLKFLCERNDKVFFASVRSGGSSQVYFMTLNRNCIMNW
T4 sequence (P14616 27-1297): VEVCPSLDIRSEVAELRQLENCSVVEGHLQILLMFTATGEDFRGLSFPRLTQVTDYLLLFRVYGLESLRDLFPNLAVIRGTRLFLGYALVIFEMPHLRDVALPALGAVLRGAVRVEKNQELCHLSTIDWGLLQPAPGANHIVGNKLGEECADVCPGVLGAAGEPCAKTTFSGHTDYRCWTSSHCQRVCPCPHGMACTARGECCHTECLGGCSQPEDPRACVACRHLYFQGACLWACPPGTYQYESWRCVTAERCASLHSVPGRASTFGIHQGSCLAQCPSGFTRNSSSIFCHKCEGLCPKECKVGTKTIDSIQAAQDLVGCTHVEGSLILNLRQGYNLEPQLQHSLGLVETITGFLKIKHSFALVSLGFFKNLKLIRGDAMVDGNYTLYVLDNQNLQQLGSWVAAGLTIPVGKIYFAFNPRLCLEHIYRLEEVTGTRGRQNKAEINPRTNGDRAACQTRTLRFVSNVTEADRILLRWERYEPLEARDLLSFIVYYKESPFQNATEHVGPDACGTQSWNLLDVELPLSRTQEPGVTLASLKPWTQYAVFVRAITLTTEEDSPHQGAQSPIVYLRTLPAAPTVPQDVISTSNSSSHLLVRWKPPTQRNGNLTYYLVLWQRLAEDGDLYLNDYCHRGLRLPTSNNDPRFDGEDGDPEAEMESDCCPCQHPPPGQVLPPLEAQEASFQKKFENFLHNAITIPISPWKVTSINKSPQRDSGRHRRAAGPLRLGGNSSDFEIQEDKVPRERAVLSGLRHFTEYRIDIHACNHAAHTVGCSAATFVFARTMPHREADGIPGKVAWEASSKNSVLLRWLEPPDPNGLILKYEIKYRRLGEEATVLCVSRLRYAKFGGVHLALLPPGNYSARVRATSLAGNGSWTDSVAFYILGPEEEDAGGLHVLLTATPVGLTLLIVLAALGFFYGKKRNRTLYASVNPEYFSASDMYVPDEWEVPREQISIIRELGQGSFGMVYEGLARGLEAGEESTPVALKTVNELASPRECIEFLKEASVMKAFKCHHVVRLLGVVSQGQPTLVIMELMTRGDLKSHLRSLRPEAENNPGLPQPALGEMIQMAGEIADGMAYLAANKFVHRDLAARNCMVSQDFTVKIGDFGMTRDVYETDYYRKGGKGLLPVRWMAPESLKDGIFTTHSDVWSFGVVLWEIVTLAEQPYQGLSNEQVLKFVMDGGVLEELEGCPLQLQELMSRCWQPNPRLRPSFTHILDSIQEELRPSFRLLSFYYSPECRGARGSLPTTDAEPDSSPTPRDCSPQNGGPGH
T7 sequence (P11309 whole entry): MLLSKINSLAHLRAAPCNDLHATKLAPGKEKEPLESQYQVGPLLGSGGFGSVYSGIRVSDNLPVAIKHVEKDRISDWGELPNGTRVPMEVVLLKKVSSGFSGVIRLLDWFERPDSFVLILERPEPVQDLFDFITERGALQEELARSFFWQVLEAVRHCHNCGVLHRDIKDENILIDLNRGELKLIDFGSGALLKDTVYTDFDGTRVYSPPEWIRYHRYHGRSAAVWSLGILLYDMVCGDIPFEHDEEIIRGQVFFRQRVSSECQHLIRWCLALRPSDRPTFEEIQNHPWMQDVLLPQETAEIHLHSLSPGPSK
T3 sequence (P08631 whole entry): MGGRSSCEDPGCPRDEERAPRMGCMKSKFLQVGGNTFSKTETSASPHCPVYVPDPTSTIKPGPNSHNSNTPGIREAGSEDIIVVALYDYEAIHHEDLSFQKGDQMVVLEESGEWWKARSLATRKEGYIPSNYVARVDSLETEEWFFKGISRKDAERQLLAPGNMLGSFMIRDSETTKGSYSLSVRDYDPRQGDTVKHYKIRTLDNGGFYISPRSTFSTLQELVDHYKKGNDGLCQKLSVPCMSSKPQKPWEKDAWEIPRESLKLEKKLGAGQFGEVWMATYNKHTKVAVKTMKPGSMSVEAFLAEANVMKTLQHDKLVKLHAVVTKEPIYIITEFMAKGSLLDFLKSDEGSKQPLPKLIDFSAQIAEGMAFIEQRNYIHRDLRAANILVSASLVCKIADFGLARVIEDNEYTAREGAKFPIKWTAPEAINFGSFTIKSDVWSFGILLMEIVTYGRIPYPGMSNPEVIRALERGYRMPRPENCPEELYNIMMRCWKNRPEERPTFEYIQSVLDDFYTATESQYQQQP

Row | Sequence | % activity (ALK (h)) [%] | % activity (Abl (Q252H) (h)) [%] | % activity (BrSK1 (h)) [%] | % activity (CaMKIδ (h)) [%] | % activity (Hck (h) activated) [%] | % activity (IRR (h)) [%] | % activity (MINK (h)) [%] | % activity (MST1 (h)) [%] | % activity (Met(M1268T) (h)) [%] | % activity (Pim-1 (h)) [%] | % activity (PrKX (h)) [%]
1 | FAKLAARLYRKALARQLGVAA [MMI-0300] | 19 | 82 | 67 | 10 | 82 | 8 | 48 | 14 | 255 | 8 | 61
2 | HRRIKAWLKKIKALARQLGVAA (Mammalian) [MMI-0500] | 12 | 40 | 72 | 0 | 67 | 10 | 5 | 3 | 239 | 0 | 57
3 | KAFAKLAARLYRKALARQLGVAA [MMI-0400] | 16 | 98 | 76 | 17 | 81 | 8 | 52 | 6 | 265 | 7 | 76
4 | YARAAARQARAKALNRQLGVA (Mammalian) [MMI-0200] | 95 | – | 93 | 47 | 100 | 69 | – | 72 | 143 | 18 | –
